This is an account of results in US20210238276A1 (INTEGRAL MOLECULAR, published 2021).

Common to all, as to assay: flow cytometry, alanine-scan library in HEK-293T
In general terms: A flow cytometer gives signals particle by particle.

In assay [1] the target is T1, hsGLUT4 G65A (human, UniProt P14672 1-509).
T1 sequence: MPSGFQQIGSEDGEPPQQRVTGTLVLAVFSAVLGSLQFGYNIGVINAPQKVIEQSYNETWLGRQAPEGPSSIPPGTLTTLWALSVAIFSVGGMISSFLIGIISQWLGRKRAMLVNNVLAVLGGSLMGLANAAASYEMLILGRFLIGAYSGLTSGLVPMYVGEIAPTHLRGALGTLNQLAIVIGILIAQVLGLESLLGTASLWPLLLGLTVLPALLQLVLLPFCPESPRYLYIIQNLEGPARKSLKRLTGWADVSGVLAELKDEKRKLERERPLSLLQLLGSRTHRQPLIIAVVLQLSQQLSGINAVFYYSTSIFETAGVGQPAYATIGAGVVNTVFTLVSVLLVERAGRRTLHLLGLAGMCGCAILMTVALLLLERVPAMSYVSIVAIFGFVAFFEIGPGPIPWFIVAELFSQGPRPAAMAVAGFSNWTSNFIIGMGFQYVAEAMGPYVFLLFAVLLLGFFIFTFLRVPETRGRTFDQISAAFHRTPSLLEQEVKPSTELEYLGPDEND
Put shortly:
(§1)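 HEK-293T cells expressing individual GLUT4 alanine mutants were stained 48 h post-transfection with anti-GLUT4 scFv MAbs (2 μg/ml), then biotinylated secondary and streptavidin-PerCP, and read by high-throughput flow cytometry. Where used, cytochalasin B (10 uM final) was given for 30 min before and during primary antibody staining.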

Assay [2] concerns the target T2, hsGLUT4 Y309A (human, UniProt P14672 1-509).
T2 sequence: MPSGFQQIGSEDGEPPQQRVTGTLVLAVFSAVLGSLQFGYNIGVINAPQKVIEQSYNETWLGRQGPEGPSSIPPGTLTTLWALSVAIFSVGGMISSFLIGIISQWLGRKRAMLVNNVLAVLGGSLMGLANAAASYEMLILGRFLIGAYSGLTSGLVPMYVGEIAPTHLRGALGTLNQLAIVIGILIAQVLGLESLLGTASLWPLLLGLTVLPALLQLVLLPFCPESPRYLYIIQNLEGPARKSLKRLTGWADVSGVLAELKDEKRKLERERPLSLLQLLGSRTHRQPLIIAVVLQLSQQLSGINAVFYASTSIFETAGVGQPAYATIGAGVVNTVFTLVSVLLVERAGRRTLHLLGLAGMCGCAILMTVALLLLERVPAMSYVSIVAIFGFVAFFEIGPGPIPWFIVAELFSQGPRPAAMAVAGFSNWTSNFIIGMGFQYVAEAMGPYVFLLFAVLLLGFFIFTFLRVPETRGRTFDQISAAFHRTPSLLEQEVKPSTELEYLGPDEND
Summed up: as §1

Assay [3] addresses T3, hsGLUT4 F307A (human, UniProt P14672 1-509).
T3 sequence: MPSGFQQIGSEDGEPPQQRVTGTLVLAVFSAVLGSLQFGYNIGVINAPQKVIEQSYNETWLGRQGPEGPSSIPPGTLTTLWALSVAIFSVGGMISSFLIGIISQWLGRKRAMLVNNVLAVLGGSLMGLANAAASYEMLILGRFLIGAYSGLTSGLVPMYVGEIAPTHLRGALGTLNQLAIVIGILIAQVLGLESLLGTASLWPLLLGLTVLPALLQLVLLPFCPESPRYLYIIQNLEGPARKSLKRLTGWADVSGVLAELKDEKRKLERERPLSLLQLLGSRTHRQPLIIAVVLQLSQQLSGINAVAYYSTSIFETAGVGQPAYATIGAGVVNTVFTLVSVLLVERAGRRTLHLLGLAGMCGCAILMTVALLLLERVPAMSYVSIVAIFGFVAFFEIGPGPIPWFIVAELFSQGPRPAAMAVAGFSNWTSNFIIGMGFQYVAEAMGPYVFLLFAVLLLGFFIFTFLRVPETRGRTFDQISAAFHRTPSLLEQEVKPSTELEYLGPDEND
Put shortly: as §1

Assay [4] has as its target T4, hsGLUT4 V306A (human, UniProt P14672 1-509).
T4 sequence: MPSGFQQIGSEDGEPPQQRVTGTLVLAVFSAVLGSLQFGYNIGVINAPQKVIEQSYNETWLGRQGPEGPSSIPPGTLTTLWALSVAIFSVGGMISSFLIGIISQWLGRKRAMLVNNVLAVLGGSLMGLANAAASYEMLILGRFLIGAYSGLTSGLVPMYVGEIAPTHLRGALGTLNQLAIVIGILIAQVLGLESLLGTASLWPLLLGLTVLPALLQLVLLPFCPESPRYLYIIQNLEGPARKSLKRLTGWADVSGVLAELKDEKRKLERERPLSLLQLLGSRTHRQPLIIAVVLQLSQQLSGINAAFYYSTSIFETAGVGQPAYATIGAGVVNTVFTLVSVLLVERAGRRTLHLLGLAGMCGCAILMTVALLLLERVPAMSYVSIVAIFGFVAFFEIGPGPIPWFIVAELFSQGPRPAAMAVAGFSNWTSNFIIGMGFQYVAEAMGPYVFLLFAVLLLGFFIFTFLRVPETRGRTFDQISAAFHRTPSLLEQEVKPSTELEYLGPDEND
Summed up:
as §1

On to 1F8 (antibody), for which the % of binding to wild type GLUT4 in assay [1] amounted to 95%; in assay [2], 75%; in assay [3], 84%; in assay [4], 74%.

B1: AB101 (scFv)
scFv: ALTQPSSVSANPGETVKITCSGSSNSYGWYQQKSPGSAPVTVIYYNDKRPSDIPSRFSGSKSDSTHTLTITGVRAEDEAVYFCGSYDSTYVGIFGAGTTLTVLGQSSRSSGGGGSSGGGGSAVTLDESGGGLQTPGGTLSLVCKASGFTFSSNAMGWVRQAPGKGLEWVAGISSDGRYTKYGSAVKGRATISRDNGQSTVRLQLNNLRAEDTGTYFCAKAFGNNYRRIYAGQIDAWGHGTEVIVSS
notes: Chicken-derived clone used as a control; the four lead clones were tested as scFv-human IgG1 Fc; also called MAb AB101
Consider B1, for which the “% of binding to wild type GLUT4” value in assay [1] came out at 87%; in assay [2], 64%; in assay [3], 82%; in assay [4], 91%.

B2: AB108 (Fc fusion)
scFv: ALTQPSSVSANLGGTVKITCSGSSGSYGWYQQKAPGSAPVTLIYRNDKRPSDIPSRFSGSESGSTGTLTITGVQAEDEAVYFCGGYDSSAGYAAFGAGTTLTVLGQSSRSSGGGGSSGGGGSAVTLDESGGGLQTPGGALSLVCKASGFTFSSHGMGWVRQAPGKGLEWVGSISTGRYTFYAPAVKGRATISRDNGQSTLRLQLNNLRAEDTGTYYCTKCAGLNGCGGGEIDAWGHGTEVIVSS
notes: Bivalent scFv-Fc; also called MAb AB108; not shown: Fc fragment of human IgG1, cloned in frame with the scFv
On to B2, for which the “% of binding to wild type GLUT4” value came out at 1% in assay [1], 91% in assay [2], 74% in assay [3] and 83% in assay [4].

B3: AB111 (Fc fusion)
scFv: ALTQPSSVSANPGETVKITCSGSGSWYGWFQQKSPGSAPVTVIYSNDKRPSDIPSRFSGSKSGSTSTLTITGVQVEDEAVYYCGNWDIFGAGTTLTVLGQSSRSSGGGGSSGGGGSAVTLDESGGGLQTPGGALSLVCKASGFTFSSHGMGWVRQAPGKGLEWVASISTGRYTFYAPAVKGRATISRDNGQSTVRLQLNNLRAEDTATYYCTKCAGLNGCGGGEIDAWGHGTEVIVSS
notes: Bivalent scFv-Fc; also called MAb AB111; not shown: Fc fragment of human IgG1, cloned in frame with the scFv
With B3, the % of binding to wild type GLUT4 in assay [1] came out at 15%; in assay [2], 110%; in assay [3] it was 108%; in assay [4], 171%.
